Measured values as given in patent US20140017790A1, “CONTROL AGENT FOR CONTROLLING UNDIFFERENTIATED STATE AND USE THEREOF” (RIKEN, priority 2011, published 2014).

Columns and labels:
Format in all cases: cell-based
[1] = system: human iPS cells; assay: culture of human iPS cells in feeder free media, EB plating, cell adhesion
Text: As undifferentiated cells, the same human iPS cells as used in Example 7 were used. As CCL2, the mouse recombinant CCL2 used in the item (1) of Example 2 was used. As feeder free media, the following three kinds of media were provided by adding or not adding the CCL2, LIF and bFGF to the medium for human stem cells used in Example 8. Specifically, the media used were as follows: the medium with CCL2 not added (−)/LIF not added (−)/bFGF added (+); the medium with CCL2 added (+)/LIF not added (−)/bFGF not added (−); and the medium with CCL2 added (+)/LIF added (+)/bFGF not added (−). In each medium, the concentration of the LIF was set to 50 units/ml, the concentration of the CCL2 was set to 500 ng/ml, and the concentration of the bFGF was set to 5 ng/ml. Then, the human iPS cells were cultured for 6 days using each medium, and EBs were produced. Thereafter, the thus-produced EBs were seeded in gelatin coated dishes so that each gelatin coated dish contained one EB, and cultured for 5 days in a medium (DMEM) containing 20% FBS.
The photographs in FIG. 20 show the cell morphologies of the EBs on the 5th day from the plating.

[2] = system: mouse iPS cells; assay: quantitative RT-PCR of undifferentiated marker genes, CCL2 overexpressed in mouse iPS cells; details: CCL2 overexpressed (Ccl2 expression vector), feeder free, 24 hours
Experimental: (§1) A PrimeScript RT-PCR Kit (trade name, TAKARA BIO INC.), an ABI 7500 Fast real time PCR system (trade name, Applied BioSystems), and a SYBR (registered trademark) Premix Ex Taq (trade name, TAKARA BIO INC.) were used in accordance with their protocols. PCR was carried out by conducting 40 cycles of treatment with a treatment at 94° C. for 5 second and at 62.5° C. for 20 seconds as 1 cycle. The expression level of each gene was calculated by normalizing the relative amount of mRNA in the gene to Gapdh mRNA according to the 2^−ΔΔ^CT method (Thomse R, Solvsten C A, Linnet T E, et al., Analysis of qPCR data by converting exponentially related Ct values into linearly related XO values. J Bioinform Comput Biol 2010: 8: 885-900.).
In the following manner, CCL2 was overexpressed in the mouse iPS cells, and the expression levels of undifferentiated marker genes were examined. The undifferentiated marker genes were the Ecat1 gene, Cripto gene, Oct3/4 gene, Zfp42 gene, Esg1 gene, Eras gene, Fgf4 gene, Dax1 gene, Nanog gene, Sox2 gene, Klf4 gene, cMyc gene, Tbx3 gene, and Eed gene.
A Ccl2 expression vector that overexpresses CCL2 was constructed. The CCL2 to be expressed was a mouse-derived protein having a full-length amino acid sequence of SEQ ID NO: 3. First, using a Gateway Technology (Invitrogen), a full-length cDNA (SEQ ID NO: 6) coding for the CCL2 was cloned into a pENTER/D-TOPO vector. The cloned sequence was confirmed, and thereafter, the full-length cDNA was inserted into an EF-α1 promoter-containing pEF-DEST51 vector (Invitrogen) using a Gateway LR Clonase II Enzyme Mix (Invitrogen), thus constructing the Ccl2 expression vector. The Ccl2 expression vector was purified using an Endotoxin free Plasmid maxi prep kit (Qiagen) in accordance with its protocol.
Next, the mouse iPS cells cultured under the feeder free conditions were seeded in a 12-well dish at a density of 3×10^5 cells/well. The amount of a medium to be added to the dish was set to 1 ml/well. Then, using 16 μl of a Lipofectamine 2000 (Invitrogen) and 4.8 μg of the Ccl2 expression vector per well, the mouse iPS cells were transfected with the Ccl2 expression vector. These mouse iPS cells were cultured for another 24 hours under feeder free conditions. Thereafter, total RNAs were extracted, and the expression levels of the undifferentiated marker genes were examined. The expressions of the undifferentiated marker genes were examined by the quantitative RT-PCR using the above-described primers. […] Then, the fold changes in expression level relative to the negative control were calculated.

[3] = system: human iPS cells; assay: cell adhesion and growth, number of human iPS cells over time; details: bFGF(-)/CCL2(+) versus bFGF(+)/CCL2(-)
Experimental: Human iPS cells were cultured under feeder conditions in the same manner as in Example 8, and the number of cells was measured every 48 hours. As a negative control, the same procedures were carried out except that bFGF was added instead of the CCL2. FIG. 17 is a graph showing the change with time in the number of the human iPS cells. The vertical axis indicates the number of cells (10^4 cells/ml), and the horizontal axis indicates the culture time (hr). CCL2(+) indicates the results obtained under the conditions of bFGF(−)/CCL2(+), and CCL2(−) indicates the results obtained under the conditions of bFGF(+)/CCL2(−).

[4] = system: AKT; assay: Western blotting, phosphorylation of AKT in human iPS cells; details: feeder conditions, 6 days, versus negative control (bFGF)
Experimental: With respect to the supernatant prepared in the above item (1), the target protein detection was carried out in the same manner as in Example 4. Furthermore, as a negative control, the target protein detection was carried out in the same manner, except that bFGF was added instead of the CCL2.
Then, the ratio of the phosphorylated AKT to the non-phosphorylated AKT (p-AKT/AKT) was determined. Assuming that the value of the p-AKT/AKT in the negative control was “1”, the relative value was calculated. Also, the ratio of the KLF4 gene expression to the GAPDH gene expression (KLF4/GAPDH) was determined. Assuming that KLF4/GAPDH in the negative control was “1”, the relative value was calculated.

[5] = system: mouse ES cells; assay: quantitative RT-PCR of undifferentiated marker genes in mouse ES cells; details: LIF 1000 units/ml, CCL2 500 ng/ml
Experimental: as §1
[…] Furthermore, as a negative control, the expression levels of the undifferentiated marker genes were determined in the same manner regarding the mouse ES […] Then, the fold changes in the expression level relative to the negative control were calculated.
FIG. […] The vertical axis indicates the fold change (-fold), and the horizontal axis indicates the examined undifferentiated marker genes. […] In the former case (open bar), the concentration of the LIF in the medium was 1000 units/ml and the concentration of the CCL2 in the medium was 500 ng/ml. […]

B1: CCL2: mouse recombinant CCL2 (MCP-1, #479-JE-010, R&D Systems); in Examples 1, 3, 4(1), 5 mouse CCL2 (SEQ ID NO: 3) overexpressed from Ccl2 expression vector (protein, listed as Mus musculus)
chain: MQVPVMLLGLLFTVAGWSIHVLAQPDAVNAPLTCCYSFTSKMIPMSRLESYKRITSSRCPKEAVVFVTKLKREVCADPKKEWVQTYIKNLDRNQMRSEPTTLFKTASALRSSAPLNVKLTRKSEANASTTFSTTTSSTSVGVTSVTVN
- cell adhesion ([1]; CCL2 500 ng/ml + LIF 50 units/ml, bFGF not added): observed
- colony growth ([1]; CCL2 500 ng/ml + LIF 50 units/ml, bFGF not added, culture for 5 days): observed
- cell adhesion ([1]; LIF not added, CCL2 500 ng/ml alone or bFGF 5 ng/ml alone): observed
- expression of the Klf4 gene, fold change relative to negative control [2]: increased markedly
- expression of the Nanog gene, fold change relative to negative control [2]: increased markedly
- expression of the Sox2 gene, fold change relative to negative control [2]: increased markedly
- expression of the Tbx3 gene, fold change relative to negative control [2]: increased markedly
- number of the cells ([3]; as of 48 hours): greater
- growth potential ([3]; as of 144 hours (6th day)): improved further
- phosphorylation of AKT (pAKT/AKT) [4]: not promoted
- expression of the Klf4 gene, fold change relative to negative control [5]: increased markedly
- expression of the Tbx3 gene, fold change relative to negative control [5]: increased markedly
